Laboratory results published in patent US20100062984A1, “FGF-23 POLYPEPTIDES” (priority 2007, published 2010).
Values joined by “and” are separate entries in the source; they are usually repeats but may differ in a detail not shown here. Equal values may be shown once.

B1: FGF-23(184-251): synthetic FGF-23 fragment, residues 184-251, SEQ ID NO: 4 (peptide, listed as Homo sapiens)
chain: DSERDPLNVLKPRARMTPAPASCSQELPSAEDNSPMASDPLGVVRGGRVNTHAGGTGPEGCRPFAKFI
B2: FGF-23(180-251): synthetic FGF-23 fragment, residues 180-251, SEQ ID NO: 3 (peptide, listed as Homo sapiens)
chain: SAEDDSERDPLNVLKPRARMTPAPASCSQELPSAEDNSPMASDPLGVVRGGRVNTHAGGTGPEGCRPFAKFI
B3: FGF-23(176-251): synthetic FGF-23 fragment, residues 176-251, SEQ ID NO: 2 (peptide, listed as Homo sapiens)
chain: RHTRSAEDDSERDPLNVLKPRARMTPAPASCSQELPSAEDNSPMASDPLGVVRGGRVNTHAGGTGPEGCRPFAKFI
B4: FGF-23(25-251): full-length recombinant human FGF-23(25-251) polypeptide expressed in E. coli, SEQ ID NO: 1 (protein, listed as Homo sapiens)
chain: YPNASPLLGSSWGGLIHLYTATARNSYHLQIHKNGHVDGAPHQTIYSALMIRSEDAGFVVITGVMSRRYLCMDFRGNIFGSHYFDPENCRFQHQTLENGYDVYHSPQYHFLVSLGRAKRAFLPGMNPPPYSQFLSRRNEIPLIHFNTPIPRRHTRSAEDDSERDPLNVLKPRARMTPAPASCSQELPSAEDNSPMASDPLGVVRGGRVNTHAGGTGPEGCRPFAKFI

Tests used:
[1] = system: normal rats; experiment: Acute intravenous infusion of equimolar FGF-23 polypeptides in anesthetized rats, renal clearance; type: in vivo, rat; details: for FENa (fractional excretion of sodium), control clearance / FEPi (fractional excretion of phosphate), control clearance: C = control clearance before infusion; for FENa (fractional excretion of sodium), control clearance / FEPi (fractional excretion of phosphate), control clearance / FENa (fractional excretion of sodium), experimental clearance / FEPi (fractional excretion of phosphate), experimental clearance: mean ± SE; for FENa (fractional excretion of sodium), experimental clearance / FEPi (fractional excretion of phosphate), experimental clearance: E = experimental clearance, i.v. infusion 1.24 nmol/kg/hour
Protocol: Male Sprague Dawley rats weighing 300 g were purchased from Harlan Sprague Dawley Inc. (Madison Wis.). They were fed a standard rodent diet containing 0.7% phosphate and 0.5% calcium. All animals were fasted overnight prior to the experiment. On the day of the experiment, rats were anesthetized with an intraperitoneal injection of 100-150 mg/kg body weight of 5-sec-butyl-ethyl-2-thiobarbituricacid (Inactin, Byk Gulden Konstanz, Hamburg, Germany). The rats were placed on a heated table to maintain body temperature between 36-38° C. After a tracheostomy, a PE 50 catheter was placed in the left carotid artery to monitor mean arterial blood pressure (MAP) and to collect blood samples. Catheters were also placed in the left and right jugular veins for infusions. A solution containing 2% inulin in 0.9% NaCl plus 4.5% BSA was infused at a rate of 1.2 mL/hour in one catheter, and 0.9% NaCl was infused in the other catheter at a rate of 1.2 mL/hour. A catheter (PE 90) was placed in the bladder for urine collection. Acute infusion studies were performed using the following seven different groups of animals.
Group 1: Vehicle Time control (n=8). After a ninety-minute recovery period, one […] urine sample was taken (C1) and a blood sample was taken. One hour later a second 60-minute clearance was taken (C2).
Group 2: Effect of acute infusion of full length FGF-23 polypeptide (1.24 nmol/kg/hour, n=8). This protocol is identical to group 1 except that after the control collections, full-length recombinant FGF-23 polypeptide was added to the 0.9% saline infusion to deliver 1.24 nmol/kg/hour of full length FGF-23 polypeptide. After one hour of infusion, a sixty-minute clearance was taken.
Group 3: Effect of acute infusion of FGF-23(176-251) polypeptide (1.24 nmol/kg/hour, n=8). This protocol is identical to group 2 except for the sequence of the infused polypeptide.
Group 4: Effect of acute infusion of FGF-23(180-251) polypeptide (1.24 nmol/kg/hour, n=8). This protocol is identical to group 2 except for the sequence of the infused polypeptide.
Group 5: Effect of infusion of FGF-23(184-251) polypeptide (1.24 nmol/kg/hour, n=8). This protocol is identical to group 2 except for the sequence of the infused polypeptide.
Group 6: Effect of infusion of FGF-23(206-251) polypeptide (1.24 nmol/kg/hour, n=6). This protocol is identical to group 2 except for the sequence of the infused polypeptide.
Group 7: Effect of infusion of FGF-23(180-205) polypeptide (1.24 nmol/kg/hour, n=6). This protocol is identical to group 2 except for the sequence of the infused polypeptide.
(§1) Plasma and urine phosphate concentrations were determined using the method of Chen (Chen et al., Anal Chem., 28:1756-1758 (1956)). Inulin concentrations in plasma and urine were determined using the anthrone method (Führ et al., Klin. Wochenschr., 33.:729-730 (1955)). Sodium concentrations in urine were determined by ion selective electrode (EasyLyte Plus Analyzer, Medica Corp., Bedford, Mass.). Calcium concentrations were measured using atomic absorption spectrometry (Kumar et al., Biochemistry, 15:2420-2423 (1976)) with a Perkin Elmer Model 3300 Atomic Absorption Spectrometer (Perkin Elmer, Boston, Mass.). Serum 1α,25(OH)2D concentrations were measured using an RIA kit (Diasorin, Stillwater, Minn.).
Statistically significant differences between groups were evaluated by Student's t-test for comparison between two groups or by one-way analysis of variance (ANOVA) followed by Tukey's test for multiple comparisons. All values were expressed as mean±SE. A p value less than 0.05 was considered to be statistically significant.

[2] = system: Fgf-23−/− mice; experiment: Intraperitoneal injection into Fgf-23−/− mice, serum phosphate; type: in vivo, mouse
Protocol: To further examine the in vivo phosphaturic activity of the smallest FGF-23 fragment, 0.2 nmoles of FGF-23(180-205) polypeptide were injected twice intraperitoneally into Fgf-23^−/− mice. FGF-23 R176Q polypeptide was similarly injected into the mutant mice as a positive control, and saline was injected as a vehicle control. Fgf-23^−/− animals were generated as reported elsewhere (Sitara et al., Matrix Biol., 23:421-432 (2004)). To determine the in vivo effects of the C-terminal fragment FGF23(180-205) in the absence of endogenous FGF-23 activity, equimolar amounts (0.2 nmoles) of FGF-23 R176Q polypeptide, FGF-23(180-205) polypeptide, and vehicle (saline) were injected twice intraperitoneally into Fgf-23^−/− mice at 0 and 8 hours. Blood was obtained by tail bleeding or cheek pouch puncture of 3- to 6-week-old Fgf-23^−/− animals, 8 hours after the second injection (at 16 hours). Serum levels of phosphate were determined in pre- and post-injection mice using the Stanbio LiquiUV kit (Stanbio Laboratory, Boerne, Tex.).

[3] = system: opossum proximal tubular epithelial cells (OK); experiment: OK cell Pi uptake assay; type: cell-based
Protocol: The OK cell Pi uptake assay was performed as described by Bowe et al. (Biochem Biophys Res Commun., 284:977-981 (2001)).

[4] = system: NaPi IIa-V5; experiment: Surface expression of V5-tagged Na+-Pi IIa transporter in OK cells (immunofluorescence); type: cell-based, opossum; details: OK cells expressing V5-tagged transporter, three hour treatment
Protocol: To assess the mechanism by which these agents altered phosphate transport, the surface expression of an epitope tagged sodium phosphate transporter, NaPi IIa-V5, was examined. An OK cell line stably expressing a VS-tagged Na+-Pi IIa transporter was generated as described elsewhere (Berndt et al., Pflugers Arch., 451:579-587 (2006)). The presence of the transporter on the cell surface of OK-N+-Pi-IIa-V5 cells was carried out using immunohistochemical methods and reagents described elsewhere (Berndt et al., Pflugers Arch., 451:579-587 (2006)).

[5] = system: rats; experiment: Chronic (72 hour) intraperitoneal administration in rats, serum phosphate and 1α,25(OH)2D; type: in vivo, rat; details: chronic (72 hour) administration, i.p. every 12 hours for three days
Protocol: as §1
Chronic animal studies were performed to determine the effect of chronic (72 hour) administration of FGF-23(176-251) polypeptide (1.24 nmol/kg/hour, n=5) or vehicle (PBS+0.1% BSA, n=6) on serum phosphate and 1α, 25 (OH)2 D concentrations. Rats received an intraperitoneal injection of FGF-23(176-251) polypeptide in 0.5 mL of normal saline every 12 hours for three days. At the end of three days, the animals were anesthetized and a terminal blood sample was taken.

[6] = acute i.v. infusion of equimolar doses, rats
[7] = listed as full length recombinant FGF-23 polypeptide

Molecule | FENa (fractional excretion of sodium), control clearance [1] | FEPi (fractional excretion of phosphate), control clearance [1] [%] | FENa (fractional excretion of sodium), experimental clearance [1] | FEPi (fractional excretion of phosphate), experimental clearance [1] | Effect on phosphate excretion (in words) [1, 6] | Radiolabeled phosphorus uptake (in words) [3] | Amount of NaPiIIa-V5 detected on the cell surface (in words) [4] | further results
FGF-23(180-205): synthetic FGF-23 fragment, residues 180-205, SAEDDSERDPLNVLKPRARMTPAPAS, SEQ ID NO: 6 (listed as Homo sapiens) | 0.4±0.1% and 0.39 ± 0.11% | 10±2 | 1.0±0.2% and 1.01 ± 0.21 % | 20±2% | increases phosphate excretion significantly |  |  | Serum phosphate level post-injection ([2]; 0.2 nmoles i.p. at 0 and 8 hours, blood at 16 hours, p<0.01 vs pre-injection, in mg/dL (unit assumed)): 10.95±0.62; Serum phosphate level pre-injection ([2]; before injection, in mg/dL (unit assumed)): 14.64±0.51
FGF-23(206-251): synthetic FGF-23 fragment, residues 206-251, SEQ ID NO: 5 (CSQELPSAEDNSPMASDPLGVVRGGRVNTHAGGTGPEGCRPFAKFI; listed as Homo sapiens) | 0.19 ± 0.04% | 22 ± 5 | 0.22 ± 0.05^ % | 29 ± 2^ % | did not increase |  |  | Effect on sodium excretion (in words) [1, 6]: did not increase
B1 | 0.3±0.1% and 0.27 ± 0.09% | 16±3 | 0.6±0.16% and 0.63 ± 0.16 % | 28±3% | increases phosphate excretion significantly |  |  | 
B2 | 0.20±0.07% and 0.17 ± 0.07% | 14±3 | 0.80±0.17% and 0.76 ± 0.17 % | 26±3% | increases phosphate excretion significantly | directly inhibited | significant decreases | 
B3 | 0.90±0.15% and 0.87 ± 0.15% | 15±2 | 1.21±0.17% | 33±2% |  |  |  | Serum phosphate concentration ([5]; vehicle 2.19±0.11 mM, p=0.062): 1.85 ± 0.12 mM; Serum 1α,25(OH)2D concentration ([5]; vehicle 114±7 pg/mL, p<0.05): 76 ± 11 pg/mL; Effect on serum Pi concentrations (in words) ([2]; given intraperitoneally): reduced
B4 |  |  |  |  |  | directly inhibited | significant decreases | FENa (fractional excretion of sodium), control clearance ([1]; listed as FGF-23 Full Length): 0.26 ± 0.14%; FEPi (fractional excretion of phosphate), control clearance ([1]; listed as FGF-23 Full Length): 14 ± 3%; FENa (fractional excretion of sodium), control clearance [1, 7]: 0.3±0.1%; FEPi (fractional excretion of phosphate), control clearance [1, 7]: 14±3%; FENa (fractional excretion of sodium), experimental clearance ([1]; listed as FGF-23 Full Length): 0.76 ± 0.15 %; FEPi (fractional excretion of phosphate), experimental clearance ([1]; listed as FGF-23 Full Length): 32 ± 5 %; FENa (fractional excretion of sodium), experimental clearance [1, 7]: 0.7±0.2%; FEPi (fractional excretion of phosphate), experimental clearance [1, 7]: 32±5%; FE Ca after infusion ([1]; acute i.v. infusion 1.24 nmol/kg/hour): 10.0±2.3%; FE Ca before infusion ([1]; control period before infusion): 4.1±1.2%
